Patent US7659376B2, “Antibody that binds glyphosate resistance protein” (priority 2002, dated 2010)

How the values were obtained:
[1] = system: E. coli XL1 Blue MRF′; experiment: Growth of GRG-1 or aroA expressing strains in M63 liquid medium with glyphosate, absorbance at 600 nm at 24 hours; assay type: cell-based; conditions: M63, +IPTG
Protocol: In addition, these strains engineered to express either GRG-1 or the wild-type E. coli aroA, were tested in another minimal media, M63, with glyphosate concentrations up to 150 mM. 1×M63 was supplemented with 10 g glucose, 10 mg Thiamine-HCl and 25 mg L-Proline. The strains were grown to saturation (overnight) in Luria Broth (Sambrook and Russell, 2001, supra) then washed two times in M63 media (adapted from Current Protocols in Molecular Biology, Greene Publishing and Wiley-Interscience, New York) before being diluted 1:100 in fresh M63 liquid medium containing 0 to 150 mM glyphosate. High level transcription from the Ptac promoter was stimulated by including 0.1 mM IPTG all of the cultures.
Each culture was grown in 2 mls of media in 10 ml tubes at 37° C. in a shaker. At 24 hours, 300 microliters of the culture was withdrawn and placed into a 96-well assay plate. The absorbance of the culture at 600 nm was measured on a Spectromax 96 well plate reader. The values in Table 8 reflect this experiment at 24 hours (NT not tested).

[2] = system: E. coli XL1 Blue MRF′; experiment: Growth of GRG-1 or aroA expressing strains in M9 liquid medium with glyphosate, absorbance at 600 nm at 8 hours; assay type: cell-based; conditions: for absorbance of the culture at 600 nm: 8 hours, mean of three cultures
Text: Strains engineered to express either GRG-1 or the wild-type E. coli aroA were engineered as described in the following way. A customized expression vector, pPEH304 Cm was constructed. The essential features of pPEH304 Clare the origin of replication from pBR322, a chloramphenicol acetyl transferase gene (for selection and maintenance of the plasmid), the lacI gene, the Ptac promoter and the rrnB transcriptional terminator. The GRG-1 open reading frame was amplified as described in Example 7. […] The aroA open reading frame was amplified by PCR from E. coli strain XL1 Blue MRF′ (Stratagene). During PCR, restriction sites were added to facilitate cloning into pPEH304 Cm.
The PCR products for GRG-1 and aroA were cloned into the expression vector pPEH304 Cm to yield the plasmids pPEH306 and pPEH307, respectively, and transformed into E. coli XL1 Blue MRF′. Correct clones were identified by standard methods known in the art. The sequence of the GRG-1 and aroA open reading frames in expression clones in pPEH306 and pPEH307 were confirmed by DNA sequencing.
Strains were grown to saturation (overnight) in Luria Broth (Sambrook and Russell, 2001, supra) then diluted 1:100 in M9 liquid medium (recipe) containing 0 to 30 mM glyphosate, and supplemented with 10 g glucose, 10 mg Thiamine-HCl and 25 mg L-Proline. High level transcription from the Ptac promoter was stimulated by including 0.1 mM IPTG in a subset of the cultures (noted as +IPTG in Table 7).
Each culture was grown in a 3 ml tube at 37° C. on a culture wheel. There were three replicate tubes of each treatment. After 8 hours of growth, 310 microliters of culture was withdrawn and placed into a 96-well plate. The absorbance of the culture at 600 nm was measured on a Spectramax 96 well plate reader. The experiment was performed in triplicate, and the values in Table 7 reflect the means of three cultures.

[3] = glyphosate concentration 0, 24 hours
[4] = glyphosate concentration 5 (mM), 24 hours
[5] = glyphosate concentration 30 (mM), 24 hours
[6] = glyphosate concentration 60 (mM), 24 hours
[7] = +IPTG (0.1 mM), 0 mM glyphosate
[8] = +IPTG (0.1 mM), 5 mM glyphosate
[9] = +IPTG (0.1 mM), 10 mM glyphosate
[10] = +IPTG (0.1 mM), 20 mM glyphosate
[11] = +IPTG (0.1 mM), 30 mM glyphosate

Row | Molecule | absorbance of the culture at 600 nm [1, 3] | absorbance of the culture at 600 nm [1, 4] | absorbance of the culture at 600 nm [1, 5] | absorbance of the culture at 600 nm [1, 6] | absorbance of the culture at 600 nm ([1]; glyphosate concentration 150 (mM), 24 hours) | absorbance of the culture at 600 nm [2, 7] | absorbance of the culture at 600 nm [2, 8] | absorbance of the culture at 600 nm [2, 9] | absorbance of the culture at 600 nm [2, 10] | absorbance of the culture at 600 nm [2, 11] | absorbance of the culture at 600 nm ([2]; no IPTG, 0 mM glyphosate) | absorbance of the culture at 600 nm ([2]; no IPTG, 5 mM glyphosate) | absorbance of the culture at 600 nm ([2]; no IPTG, 10 mM glyphosate) | absorbance of the culture at 600 nm ([2]; no IPTG, 20 mM glyphosate) | absorbance of the culture at 600 nm ([2]; no IPTG, 30 mM glyphosate) | glyphosate concentration in whose presence survival and growth of E. coli is allowed ([2]; summary of Table 7) [mM] | glyphosate concentrations that inhibit growth of expressing cells ([2]; summary of Table 7) [mM]
1 | GRG-1: glyphosate resistance protein (SEQ ID NO:2), homologous to EPSP synthases; expressed in E. coli from plasmid pPEH306 (protein, Enterobacteriaceae, expressed in E. coli from plasmid pPEH306) MKVTIQPGDLTGILQSPASKSSMQRACAAALVAKGISEIINPGHSNDDKAARDIVSRLGARLEDQPDGSLQITSEGVKPVAPFIDCGESGLSIRMFTPIVALSKEEVTIKGSGSLVTRPMDFFDEILPHLGVKVKSNQGKLPLVIQGPLKPADVTVDGSLSSQFLTGLLLAYAAADASDVAIKVTNLKSRPYIDLTLDVMKRFGLKTPENRNYEEFYFKAGNVYDETKMQRYTVEGDWSGGAFLLVAGAIAGPITVRGLDIASTQADKAIVQALMSANAGIAIDAKEIKLHPADLNAFEFDATDCPDLFPPLVALASYCKGETKIKGVSRLAHKESDRGLTLQDEFGKMGVEIHLEGDLMRVIGGKGVKGAEVSSRHDHRIAMACAVAALKAVGETTIEHAEAVNKSYPDFYSDLKQLGGVVSLNHQFNFS | 0.4943 | 0.7192 | 0.7884 | 0.789 | 0.951 | 0.100 | 0.104 | 0.117 | 0.125 | 0.135 | 0.092 | 0.102 | 0.110 | 0.112 | 0.104 | 30 | 
2 | aroA: wild-type E. coli aroA (EPSP synthase), expressed from plasmid pPEH307 (protein, UniProt P0A6D3 1-427, looked up) 3-phosphoshikimate …: MESLTLQPIARVDGTINLPGSKSVSNRALLLAALAHGKTVLTNLLDSDDVRHMLNALTALGVSYTLSADRTRCEIIGNGGPLHAEGALELFLGNAGTAMRPLAAALCLGSNDIVLTGEPRMKERPIGHLVDALRLGGAKITYLEQENYPPLRLQGGFTGGNVDVDGSVSSQFLTALLMTAPLAPEDTVIRIKGDLVSKPYIDITLNLMKTFGVEIENQHYQQFVVKGGQSYQSPGTYLVEGDASSASYFLAAAAIKGGTVKVTGIGRNSMQGDIRFADVLEKMGATICWGDDYISCTRGELNAIDMDMNHIPDAAMTIATAALFAKGTTTLRNIYNWRVKETDRLFAMATELRKVGAEVEEGHDYIRITPPEKLNFAEIATYNDHRMAMCFSLVALSDTPVTILDPKCTAKTFPDYFEQLARISQAA | 0.5982 | 0.1209 | 0.0276 | 0.0298 |  | 0.075 | 0.068 | 0.063 | 0.056 | 0.052 | 0.095 | 0.048 | 0.046 | 0.047 | 0.048 |  | ≥ 10
